Values of other authors, collected in publication PMC8257665.

What was measured:
[1] = biological target: Glu143 (UniProt position 143, FGYMGEAGIMA); details: ground (dark) state GPR implied; not stated explicitly
[2] = biological target: Glu109 (UniProt position 109, PLLICEFYLIL); details: ground (dark) state GPR implied; not stated explicitly

Substance: Green-light absorbing proteorhodopsin (GPR) (uncultured marine gamma-proteobacterium (the article says only 'marine γ-proteobacteria'))
- pKa [1]: > 9.0
- pKa [2]: > 8.5
